Experiment: yeast display, Sf9 membrane polyspecificity reagent, FACS + sequencing; frameworks hold sequencing errors
How it was run: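 Galactose induction of a Saccharomyces cerevisiae BJ5465 synthetic nanobody display library ran 36–48 hours. The cells were then stained for 1 hour at 4 °C with 10% biotinylated, detergent-solubilized Sf9 membrane reagent, pulled down on streptavidin microbeads and FACS-sorted into low and high (top ~1%) gates on expression and reagent-binding fluorescence. Labels for polyreactivity follow the gate of origin.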

| Sequence | polyreactivity (PSR sort gate) |
| --- | --- |
| QVQLVESGGGLVQAGGSLRLSCAASGSTFDYYAMGWYRQAPGKVRELGAAITTSGGSTYYADSVKGRFTISRDNAKNTVYLQINCLKPEDTAVYYCAAESYWYGTSPYYYLYEYDYWGQGTQVTVSS | high polyreactivity |
| QVQLVESGGGLVQAGGSLRLSCAASGSTFDYYDMGWYRPAPGKERELVAAISSGGDSTYYADSVKGRFTISRDNAKNTVYLQFNSLKPEDSAVYYCAAPDESYSVWRLDGLDYWGQGTQVTVSS | high polyreactivity |
| QVQLVESGGGLVQAGGSLRLSCAASGSTFDYYTMGWYRPAPGKERELVAAISSSGGSTYYADSVKGRFTISRDYAKNTVYLQMNSLKPEDTAVYYCAADPSPYGDEYDYWGQGTQVTVSS | low polyreactivity |
| QVQLVESGGGLVQAGGSLRLSCAASGSTFDYYVMGWYRQAPGKERELVASISSGGSTYYADSVKGRFTISRDNAKNTVYLQMNSLKPEDTAVYYCAARYYGRVGGYSIGYNYWGQGTQVTVSS | high polyreactivity |
| QVQLVESGGGLVQAGGSLRLSCAASGSTFEANAMGWNRPAPWKERELVAVITWTGGSTYYADSVKGRFTISRDNAKNTVYLQMNSLKPEDTAVYYCAADGVVPGRFFWPAHEYDYWGQGTQVTVSS | low polyreactivity |
| QVQLVESGGGLVQAGGSLRLSCAASGSTFEANAMGWYRQAPGNERELVAVITWTGGSTYYADSVKGRFTISRDNAKNTVYLQMNSLKPEDTAVYYCAADGVVPGRFFWPAHEYDYWGQGTQVTVSS | low polyreactivity |
| QVQLVESGGGLVQAGGSLRLSCAASGSTFEDNTMGWYRQAPGKEREFVADISNIGGDTTYADSVKGRFTISRDNAKNTVYLQMNSLKPEDTAVYYCAAVKGHSQVLSYGYWGQGTQVTVSS | low polyreactivity |
| QVQLVESGGGLVQAGGSLRLSCAASGSTFEHYAMGWYRQAPGKERELVAAISYTGGNTYYADSVKGRFTISRDNAKNTVYLQMNSLKPEDTAVYYCAAAPLYYHRRGYYYWGQGTQVTVSS | high polyreactivity |
| QVQLVESGGGLVQAGGSLRLSCAASGSTFEHYTMGWYRQAPGKERELVAAINGRGGSTYYADSVKGRFTISRDNAKNTVYLQMNSLKPEDTAVYYCAAVYGFRDYDYWGQGTQVTVSS | high polyreactivity |
| QVQLVESGGGLVQAGGSLRLSCAASGSTFELNAMGWYRQAPGKERELVAVITISGGNTYYADSVKGRFTISRDNAKNTVDLPMNSLKPDDTAVYYCAARPITTSITRYGFWGQGTQVTVSS | high polyreactivity |
| QVQLVESGGGLVQAGGSLRLSCAASGSTFENYVMGWDRQAPGKERELVAAISRGGGSTHYADSVKGRFTISRDNANNTVYLQMNSLKPEDTAVYYCAARYQPYVGSRSISTGIYYYWGQGTQVTVSS | low polyreactivity |
| QVQLVESGGGLVQAGGSLRLSCAASGSTFETNAMGLYRQATRKERELVAAISYNGGSTYADSVKGRFTISRDNAKNTVYLHMNSLKPEDSAVYYCAAVRSPRGLGGYWGQGTQVTVAS | low polyreactivity |
| QVQLVESGGGLVQAGGSLRLSCAASGSTFETYAMGWYRQAPGKERELVAVITSDGSTNYADSVKGRFTISRDNAKNTVYLQMNSLKPEDTAGYYCNADYGFYVPAYPIYWIYEYWGQGTQVTVSS | low polyreactivity |
| QVQLVESGGGLVQAGGSLRLSCAASGSTFEYNAMGGYRQAPGKERELVASSTNYADSVKGRFTISRDNAKKTVYLQMTSLKPEDTAVYYCAREQGVNRNHDYWGQGTQVTVSS | low polyreactivity |
| QVQLVESGGGLVQAGGSLRLSCAASGSTFEYNAMGGYRQAPGKERELVASSTNYADSVKGRFTISRDNAKNTVYLQMNSLKPEDTAVYYCAREQGVNRNHDYWGQGTQVTVSS | low polyreactivity |
| QVQLVESGGGLVQAGGSLRLSCAASGSTFEYYAMGWYRQAPGKERELVAAISSGPSTTYADSVKGRFTISRDNAKNTVYLQMNSLKPEDTAVYYCAARTYPSYYVTFEYWGQGTQVTVSS | low polyreactivity |
| QVQLVESGGGLVQAGGSLRLSCAASGSTFEYYAMGWYRQAPGKERELVAAITGSGDNTYYADSVKGRFTISRDYAKNTVYLQMNSLKPEDTAVYYCAATLRVKGQYGRMYYWGQGTQVTVSS | high polyreactivity |

— the nanobody polyreactivity screen of Harvey et al. (2022)
